Assay results published in the supplement of paper PMC10567573.
± gives the standard deviation.

Assay: protein stability index of a GFP-peptide fusion (GPS, HEK-293T) (PSI 1-6); higher = more stable
[1] = treatment: DMSO, c terminus: a fixed tail appended
[2] = treatment: MLN4924 1 uM, 8 h, c terminus: a fixed tail appended
[3] = treatment: DMSO, c terminus: native
[4] = treatment: MLN4924 1 uM, 8 h, c terminus: native
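Note: 24-mer peptide tiles fused after GFP, lentivirally expressed, FACS-sorted into six equal bins by GFP/DsRed ratio, decoded by Illumina sequencing, PSI is the read-weighted mean bin number.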

| Sequence | protein stability index [1] | protein stability index [2] | protein stability index [3] | protein stability index [4] |
| --- | --- | --- | --- | --- |
| STGEVYCRVPNSGKDEIEAAVKAA [ALDH8A1] | 4.93 ± 0.4 | 4.94 ± 0.32 |  |  |
| STICFGQGAARGFKSNKKKTKQC [ZNF511] |  |  | 4.86 ± 0.14 | 4.71 ± 0.32 |
| STLLPLAPSNSTSLNSTFGSTNLT [NFE2L1] | 3.64 ± 0.19 | 3.86 ± 0.16 |  |  |
| STSRAHKLPSRRQPGLLHLQSCGD [FAM189A2] | 3.67 ± 0.33 | 3.85 ± 0.13 |  |  |
| STTEGIQLAKELGATYLELHSLDD [RHOBTB3] | 3.77 ± 0.3 | 4.16 ± 0.37 |  |  |
| STVKNEFSLKTFKRKSEVERAVKR [MATN2] | 4.17 ± 0.14 | 4.39 ± 0.3 |  |  |
| SVDLIKTYKHINEVYYAKKKRRAQ [DYRK1B] | 2.85 ± 0.23 | 3.13 ± 0.14 |  |  |
| SVILNHMAREHAFNIGLPDNIVNC [ZNF277] | 1.98 ± 0.2 | 2.22 ± 0.45 |  |  |
| SVILRRYFLELTQSFIIPLERYVA [DENND6A] | 2.33 ± 0.63 | 2.88 ± 0.75 |  |  |
| SVVRDLKGYPDGVKSIVVKGYNIW [TLE6] | 2.26 ± 0.26 | 2.23 ± 0.21 |  |  |
| SWASAQVQILCHTYWEHWTSQGQV [RTP4] | 2.8 ± 0.74 | 2.77 ± 0.75 |  |  |
| SYSAGDSGDAAAQPAFTGIKGKEG [EPB41L3] | 5.37 ± 0.15 | 5.3 ± 0.25 |  |  |
| TAFAPKMIVDLLSEKKTISFQGCM [OR4A15] | 2.08 ± 0.13 | 2.26 ± 0.42 |  |  |
| TAGLKIFEPPAPGEGNSSQNSRNK [TNFSF13B] | 5.2 ± 0.22 | 5.24 ± 0.15 |  |  |
| TAILIECGADVNVRDSDDNSPLHI [FEM1C] | 3.43 ± 0.34 | 3.5 ± 0.3 |  |  |
| TASTKNCMVGYDMGATRCDFTLSK [CPXM2] | 2.64 ± 0.4 | 3.03 ± 0.51 |  |  |
| TCFDQRKRANAAFLIGAYAVIYLK [CDC14A] | 2.05 ± 0.31 | 2.13 ± 0.41 |  |  |
| TEAANAARHVAPEIRELLTQFET [PWWP2B] |  |  | 3.49 ± 0.21 | 3.88 ± 0.29 |
| TEDTPKVNADIEKVNQNQAKRCTV [NSDHL] | 5.42 ± 0.23 | 5.38 ± 0.21 |  |  |
| TEEELRRIQTQKEQAKENENGELQ [ZC2HC1C] | 5.68 ± 0.23 | 5.54 ± 0.14 |  |  |
| TETHVRDWVMWAVNEFSLKGVDFQ [ETS1] | 2.81 ± 0.94 | 2.72 ± 0.78 |  |  |
| TEVLRNMGFAAKAMKSVHENMDLN [CHMP4C] | 3.3 ± 0.34 | 3.46 ± 0.16 |  |  |

| Sequence | protein stability index [1] | protein stability index [2] | protein stability index [3] | protein stability index [4] |
| --- | --- | --- | --- | --- |
| TFDVDEYEHYERVENGDFNWIVPG [CDC14A] | 4.11 ± 0.26 | 4.17 ± 0.17 |  |  |
| TFILKNPPENSDSGTGKKEKEKKN [EIF5] | 4.94 ± 0.3 | 5.137 ± 0.05 |  |  |
| TFPDLESEFQAALSRKVAKLVHFL [MAGEA6] | 2.27 ± 0.2 | 2.22 ± 0.21 |  |  |
| TFPKALTNGSFSPSGNNGSVNWRT [DLC1] | 3.14 ± 0.14 | 3.19 ± 0.23 |  |  |
| TGGQTVVNPWIIIGGVATVVCQPN [SEPHS2] | 2.84 ± 0.76 | 2.62 ± 0.7 |  |  |
| TIDKQREEMAKSSRASAARVGQLQ [LRRC45] | 4.67 ± 0.14 | 4.73 ± 0.14 |  |  |
| TITMAHLLAAREDLSKIIRTSSGT [FAM98B] | 2.31 ± 0.33 | 2.38 ± 0.4 |  |  |
| TIYCSLQLQALNRRFQQTQYLALP [DLX1] | 2.53 ± 0.48 | 2.42 ± 0.62 |  |  |
| TKKKQWCYNCEEEAMYHCCWNTSY [ZMYND11] | 2.6 ± 0.25 | 2.45 ± 0.4 |  |  |
| TKLSAQSAQYSQQLQAARNEYLLN [FCHSD1] | 3.19 ± 0.055 | 3.33 ± 0.18 |  |  |
| TKMWHPNIYETGDVCISILHPPVD [CDC34] | 2.23 ± 0.2 | 2.12 ± 0.37 |  |  |
| TKPTQGASSASEPQGLFVEALSVP [CLPTM1] | 4.13 ± 0.097 | 4.29 ± 0.19 |  |  |
| TLMGKLKLKNTVTIQQEKLLAEKE [SASS6] | 3.406 ± 0.012 | 3.39 ± 0.58 |  |  |
| TLRRIQASMAPAAALPPVPSPPAA [SERTAD1] | 3.6 ± 0.23 | 3.8 ± 0.31 |  |  |
| TLRTLTGQDTMLKAMFSGRVEVLT [KCTD13] | 2.44 ± 0.22 | 2.37 ± 0.29 |  |  |
| TLVMFQSLGERMNTFVRYLLKRIK [KCNK9] | 3 ± 0.54 | 2.73 ± 0.23 |  |  |
| TMEDTLMTVKQYEAARLEYDAYRT [ARFIP2] | 3.88 ± 0.27 | 3.74 ± 0.3 |  |  |
| TMLATRNFSAAKSLLNKKADGVKP [CAMK2B] | 3.73 ± 0.34 | 4.02 ± 0.32 |  |  |
| TMTNYDEAAMAIASLNGYRLGERV [ELAVL3] | 3 ± 0.35 | 3.17 ± 0.31 |  |  |
| TNDSLSLKPSWFDFGFAILGFAYA [MIA2] | 2.99 ± 0.53 | 2.49 ± 0.4 |  |  |
| TNYNNVCRKFPRDMKAMSPENQEY [RHOBTB2] | 3.8 ± 0.12 | 4.13 ± 0.12 |  |  |
| TPEDSDPDHFDTAILFTRQDLCGV [ADAMTS4] | 4.15 ± 0.092 | 4.18 ± 0.17 |  |  |

| Sequence | protein stability index [1] | protein stability index [2] | protein stability index [3] | protein stability index [4] |
| --- | --- | --- | --- | --- |
| TPHVYWAQRHRELYLRVELSDVQN [HACD3] | 2.28 ± 0.14 | 2.17 ± 0.24 |  |  |
| TPKDKRVSNTPLRTVDGSPMMKAA [PALM] | 4.33 ± 0.3 | 4.39 ± 0.24 |  |  |
| TPLDAFRMTSAAHYYPKLMSIMGN [GFOD1] | 2.12 ± 0.33 | 2.06 ± 0.093 |  |  |
| TPPHLTSAMAENILAAACESETRK [NOL4L] | 4.16 ± 0.47 | 4.35 ± 0.2 |  |  |
| TQDPSQPNSTKNQSLPKASPVTTS [LCOR] | 5.21 ± 0.19 | 5.12 ± 0.23 |  |  |
| TQTSEECNGILTEKMEEEEQTCDP [ZNF396] | 5.5 ± 0.22 | 5.71 ± 0.17 |  |  |
| TRNVQSVSIIDTELKVKDSQPIDL [TRIP13] | 4.32 ± 0.16 | 4.55 ± 0.19 |  |  |
| TSEDLRLQCDAVNLAFGRRCEELE [TEKT4] | 4.51 ± 0.32 | 4.71 ± 0.29 |  |  |
| TSLSLAQVGAKGDTANEIGQVLHF [SERPINB5] | 3.06 ± 0.28 | 3.18 ± 0.37 |  |  |
| TSRRPSGTGTGPEDGRPSLGSPYG [PDLIM4] | 4.67 ± 0.21 | 4.67 ± 0.2 |  |  |
| TSSLAQPGAYYPYERTLGQYQYER [IRX6] | 3.25 ± 0.38 | 3.22 ± 0.21 |  |  |
| TSSSDDDEEVSGSSKTITAEIPDG [C18orf25] | 5.59 ± 0.19 | 5.49 ± 0.23 |  |  |
| TSVGMSFVAGGISGTVAAVLTLPF [SLC25A39] | 2.95 ± 0.77 | 2.54 ± 0.25 |  |  |
| TSYKVMVSNDSHTWVTVKNGSGDM [CPXM2] | 2.8 ± 0.38 | 2.94 ± 0.27 |  |  |
| TSYRLQGLKPNSLYYFRLAARSPQ [PTPRD] | 2.33 ± 0.52 | 2.42 ± 0.39 |  |  |
| TTFSTTSGYMEGYYTFHFLYFKDK [FBXO3] | 2.97 ± 0.74 | 2.41 ± 0.41 |  |  |
| TVCDPARSCAIVEDDGLQSAFTAA [ADAMTS4] | 3.6 ± 0.85 | 4.16 ± 0.47 |  |  |
| TVGIYFGLVYRIHSVLQGFIPLFQ [TMEM40] | 3.16 ± 0.58 | 3.16 ± 0.54 |  |  |
| TWLTTPKSTWPRYSKPGLSMRLLE [TCF25] | 2.41 ± 0.61 | 2.29 ± 0.31 |  |  |
| TYRIENYTPDLPRADVDHAIEKAF [MMP1] | 3.4 ± 0.18 | 3.39 ± 0.31 |  |  |
| TYVAKMSEPHYGHAGTVYGGVMYI [KLHL13] | 3.32 ± 0.82 | 2.52 ± 0.45 |  |  |
| VAITVEVKQEEDIKPPPPLVLNSQ [RAD54B] | 3 ± 0.26 | 2.98 ± 0.24 |  |  |

| Sequence | protein stability index [1] | protein stability index [2] | protein stability index [3] | protein stability index [4] |
| --- | --- | --- | --- | --- |
| VAMDTEFPGVVARPIGEFRSNADY [CNOT7] | 3.73 ± 0.38 | 3.78 ± 0.37 |  |  |
| VAVNNIGRGPPSEPVLTQTSEQAP [PTPRD] | 4.78 ± 0.2 | 5.02 ± 0.49 |  |  |
| VCTKYNLRITSGVVVCQCGLSIPS [RPAIN] | 2.56 ± 0.5 | 2.45 ± 0.55 |  |  |
| VDDLKGSLKEDLTQHKFICEQCGK [SPRY1] | 5.03 ± 0.3 | 4.88 ± 0.26 |  |  |
| VEAVAYAPKKELINIKGISEAKAD [RAD51] | 4.49 ± 0.22 | 4.52 ± 0.41 |  |  |
| VELHYEEGSPRNLGTPTSSTPRPS [C2CD2L] | 4.63 ± 0.48 | 4.48 ± 0.32 |  |  |
| VENPSTASHSLSPSEHVQGKSPVN [ZNF649] | 5.26 ± 0.17 | 5.21 ± 0.29 |  |  |
| VERSKMIDRNLREDGEKAAREVKL [GNAI1] | 4.93 ± 0.38 | 5.09 ± 0.062 |  |  |
| VEVDAPKSQDLAKIMADIRAQYDE [KRT18] | 4.76 ± 0.12 | 4.71 ± 0.17 |  |  |
| VGDILWEHLEILQKEDVKPYQVNG [ETS1] | 3.1 ± 0.27 | 3.05 ± 0.33 |  |  |
| VGEPEFHYIAGAHGNEVLGRELLL [CPXM2] | 2.88 ± 0.62 | 3.25 ± 0.2 |  |  |
| VGERLQDTHSWKSELQREMEALAA [TEKT4] | 3.9 ± 0.62 | 3.92 ± 0.56 |  |  |
| VGHARGLHAWQINWPARQRGTHAV [SPSB4] | 2.96 ± 0.43 | 2.87 ± 0.24 |  |  |
| VHQLSKKEASRHAIMRSPQMVSAI [CTNNB1] | 3.06 ± 0.26 | 3.06 ± 0.22 |  |  |
| VIDKETIDLLAFTSVAELELLGLE [SDE2] | 2.27 ± 0.52 | 2.73 ± 0.48 |  |  |
| VIDLFDEQGLSALHLAAQGRHAQT [RIPK4] | 3.05 ± 0.35 | 2.87 ± 0.14 |  |  |
| VLAARSPVFNAMFEHEMEESKKNR [SPOPL] | 3.73 ± 0.2 | 4.27 ± 0.29 |  |  |
| VLASFILDDGEIDEIRWKYHSDTT [IQUB] | 2.5 ± 0.23 | 2.18 ± 0.3 |  |  |
| VLEDNIIVSEVQFVESSGGGSSAV [BRF1] | 3.75 ± 0.21 | 3.89 ± 0.27 |  |  |
| VLFTSDACGLSDVAHVESLQEKSQ [NR2F2] | 3.93 ± 0.26 | 4.04 ± 0.28 |  |  |
| VLIFKSILFLPCLRKKILKIRHGW [STEAP1] | 2.16 ± 0.51 | 2.38 ± 0.25 |  |  |
| VLLKKDVDAAYANKVELQAKVESM [KRT71] | 3.63 ± 0.36 | 3.65 ± 0.36 |  |  |
